Tests used:
Test in all cases: purified protein
Conditions in all cases: potassium phosphate pH 7.5, 22-23 °C
purified protein [1] = substrate: O=C(Nc1ccn([C@H]2C[C@H](O)[C@@H](CO)O2)c(=O)n1)c1ccccc1
purified protein [2] = substrate: O=C(Nc1ccn([C@H]2C[C@H](O)[C@@H](CO)O2)c(=O)n1)c1ccccc1; format: biochemical, uncultured bacterium
purified protein [3] = substrate: Nc1ccn([C@H]2C[C@H](O)[C@@H](CO)O2)c(=O)n1; format: biochemical, uncultured bacterium
[4] = substrate not given, inferred from the stated about twofold rise over wild type

B1: CDA_F14 (uncultured bacterium; G81L) (protein)
chain: MNKEDLLKKAFEAMENAYAPYSNYHVGACALMKDGTTFLGANIENASYGATNCGERSAIFAAYSNGYRADDIEALAIVTDLDRVGAPCGICRQVLSELLNDNTPIYLSNGKETLEKTIDELLPMRFTKEDLL
In the case of B1, the Km (purified protein [1]) is reported as “(8.66 ± 3.8) × 10^-4 M” and the kcat (purified protein [1]) is reported as “(7.89 ± 3.08) × 10^-1 s^-1”.

B2: CDA_F14 (uncultured bacterium; F126A) (protein)
chain: MNKEDLLKKAFEAMENAYAPYSNYHVGACALMKDGTTFLGANIENASYGATNCGERSAIFAAYSNGYRADDIEALAIVTDGDRVGAPCGICRQVLSELLNDNTPIYLSNGKETLEKTIDELLPMRATKEDLL
In the case of B2, the Km (purified protein [1]; [4]) is reported as “(2.59 ± 0.73) × 10^−4 M”.

B3: CDA_F14 (uncultured bacterium; F126W) (protein)
chain: MNKEDLLKKAFEAMENAYAPYSNYHVGACALMKDGTTFLGANIENASYGATNCGERSAIFAAYSNGYRADDIEALAIVTDGDRVGAPCGICRQVLSELLNDNTPIYLSNGKETLEKTIDELLPMRWTKEDLL
notes: recombinant in E. coli HMS174 delta-pyrF delta-cdd, purified; homotetramer, one Zn per subunit; active site formed by three subunits
For B3, the Km (purified protein [2]; [4]) was “(2.11 ± 0.38) × 10^−4 M”.

B4: CDA_F14 (uncultured bacterium) (protein)
chain: MNKEDLLKKAFEAMENAYAPYSNYHVGACALMKDGTTFLGANIENASYGATNCGERSAIFAAYSNGYRADDIEALAIVTDGDRVGAPCGICRQVLSELLNDNTPIYLSNGKETLEKTIDELLPMRFTKEDLL
notes: as for B3
In the case of B4, the Km (purified protein [3]) is reported as “(1.95 ± 0.36) × 10^−4 M”, the kcat (purified protein [3]) is reported as “(24.4 ± 1.71) × 10^−1 s^−1” and the Km (purified protein [2]) is reported as “(1.15 ± 0.16) × 10^−4 M”. The kcat (purified protein [2]) was “(5.04 ± 0.4) × 10^−1 s^−1”.

B5: CDA_F14 (uncultured bacterium; G81L/G85I) (protein)
chain: MNKEDLLKKAFEAMENAYAPYSNYHVGACALMKDGTTFLGANIENASYGATNCGERSAIFAAYSNGYRADDIEALAIVTDLDRVIAPCGICRQVLSELLNDNTPIYLSNGKETLEKTIDELLPMRFTKEDLL
For B5, the Km (purified protein [1]) was “(4.93 ± 1.3) × 10^-4 M” and the kcat (purified protein [1]) was “(4.14 ± 0.88) × 10^-2 s^-1”.
